Experiment in all cases: Kinetic parameters for peptide phosphorylation, radioactive filter-binding assay
Substrate in series [1]: CC(C)C[C@H](NC(=O)[C@H](CCCNC(=N)N)NC(=O)[C@H](CCCNC(=N)N)NC(=O)[C@@H](N)CCCNC(=N)N)C(=O)N[C@@H](CO)C(=O)N[C@@H](Cc1ccccc1)C(=O)N[C@@H](C)C(=O)N[C@@H](CCC(=O)O)C(=O)N1CCC[C@H]1C(=O)NCC(=O)O
The series is classed as biochemical, bovine. The settings on record: other: PKG; Standard Substrate = …; 30.0 °C. From the text:
(§1) Apart from the AMP-activated protein kinase (AMPK, a gift from Drs S. Hawley and D. G. Hardie), cGMP-dependent protein kinase (PKG, a generous gift from Drs Susan Lohmann and Ulrich Walter, University of Wurzburg, Germany) and the catalytic subunit of cyclic AMP-dependent protein kinase (PKA, a gift from Dr C. Smythe), which were isolated from rat liver, bovine lung and bovine heart, respectively, all other protein kinases were expressed as either GST-fusion or His-tagged proteins (by a person, a person, Dr A. Paterson or a person, in this Division). The expressed proteins all corresponded to the human sequences apart from the rat Rho-dependent protein kinase (ROCK-II) and rat mitogen-activated protein kinase (MAPK) activated kinase-1a (MAPKAP-K1a, also called RSK). […]
(§2) All protein kinase assays were linear with respect to time. […] All papers were subsequently washed a further three times in phosphoric acid, once in acetone, then dried and counted for radioactivity. […] The plates were then washed six times (five min per wash) in PBS, 0.1% Tween 20 and binding of the phospho-specific antibody detected by incubating the plates with peroxidase-conjugated anti-sheep antibodies (Pierce). […] Signals were quantitated on LAS-1000IR software (FujiFilm). […]

Substrate in series [2]: CC(C)C[C@H](NC(=O)[C@H](CCCCN)NC(=O)[C@@H](N)CCCCN)C(=O)N[C@@H](CC(N)=O)C(=O)N[C@@H](CCCNC(=N)N)C(=O)N[C@H](C(=O)N[C@@H](CC(C)C)C(=O)N[C@@H](CO)C(=O)N[C@@H](Cc1ccccc1)C(=O)N[C@@H](C)C(=O)N[C@@H](CCC(=O)O)C(=O)N1CCC[C@H]1C(=O)NCC(=O)O)[C@@H](C)O
It is filed as biochemical, human. To be noted: 30.0 °C.
Description: as §1, with “RSK). GST-fusion proteins were purified on GSH-agarose (Amersham Pharmacia Biotech, Amersham, UK) and His-tagged proteins on Ni-NTA agarose (Qiagen) essentially according to the manufacturer's instructions. All the protein kinases used in this study are available from Upstate Biotechnology Inc. (Lake Placid, N.Y., USA), apart from the α-isoform of calmodulin-dependent protein kinase II (CaMKII), MAPKAP-K3 and PKG.” for “RSK).”
as §2

Substrate in series [3]: CC(C)C[C@H](NC(=O)[C@@H](NC(=O)[C@H](CCCNC(=N)N)NC(=O)[C@H](C)NC(=O)[C@@H](N)CCCNC(=N)N)[C@@H](C)O)C(=O)N[C@@H](CO)C(=O)N[C@@H](Cc1ccccc1)C(=O)N[C@@H](C)C(=O)N[C@@H](CCC(=O)O)C(=O)N1CCC[C@H]1C(=O)NCC(=O)O
The series is classed as biochemical, human. To be noted: other: PRAK; Standard Substrate = …; 30.0 °C.
Description: as §1, with “RSK). GST-fusion proteins were purified on GSH-agarose (Amersham Pharmacia Biotech, Amersham, UK) and His-tagged proteins on Ni-NTA agarose (Qiagen) essentially according to the manufacturer's instructions. All the protein kinases used in this study are available from Upstate Biotechnology Inc. (Lake Placid, N.Y., USA), apart from the α-isoform of calmodulin-dependent protein kinase II (CaMKII), MAPKAP-K3 and PKG.” for “RSK).”
as §2

These results are taken from patent US7727950B2, “Methods and reagents for assaying protein kinase activity” (The University of Dundee, priority 2002, dated 2010).

The Km is the substrate concentration at which the rate is half of its maximum.

B1: PKG (Bos taurus) (protein)
chain: MSELEEDFAKILMLKEERIKELEKRLSEKEEEIQELKRKLHKCQSVLPVPSTHIGPRTTRAQGISAEPQTYRSFHDLRQAFRKFTKSERSKDLIKEAILDNDFMKNLELSQIQEIVDCMYPVEYGKDSCIIKEGDVGSLVYVMEDGKVEVTKEGVKLCTMGPGKVFGELAILYNCTRTATVKTLVNVKLWAIDRQCFQTIMMRTGLIKHTEYMEFLKSVPTFQSLPEEILSKLADVLEETHYENGEYIIRQGARGDTFFIISKGKVNVTREDSPNEDPVFLRTLGKGDWFGEKALQGEDVRTANVIAAEAVTCLVIDRDSFKHLIGGLDDVSNKAYEDAEAKAKYEAEAAFFANLKLSDFNIIDTLGVGGFGRVELVQLKSEESKTFAMKILKKRHIVDTRQQEHIRSEKQIMQGAHSDFIVRLYRTFKDSKYLYMLMEACLGGELWTILRDRGSFEDSTTRFYTACVVEAFAYLHSKGIIYRDLKPENLILDHRGYAKLVDFGFAKKIGFGKKTWTFCGTPEYVAPEIILNKGHDISADYWSLGILMYELLTGSPPFSGPDPMKTYNIILRGIDMIEFPKKIAKNAANLIKKLCRDNPSERLGNLKNGVKDIQKHKWFEGFNWEGLRKGTLTPPIIPSVASPTDTSNFDSFPEDNDEPPPDDNSGWDIDF
notes: which were isolated from rat liver, bovine lung and bovine heart, respectively; from tissue; host or cells: bovine lung
For the protein B1, the Km in series [1] was 50 µM.

B2: S6K1 (Homo sapiens; T412E) (protein)
chain: MRRRRRRDGFYPAPDFRDREAEDMAGVFDIDLDQPEDAGSEDELEEGGQLNESMDHGGVGPYELGMEHCEKFEISETSVNRGPEKIRPECFELLRVLGKGGYGKVFQVRKVTGANTGKIFAMKVLKKAMIVRNAKDTAHTKAERNILEEVKHPFIVDLIYAFQTGGKLYLILEYLSGGELFMQLEREGIFMEDTACFYLAEISMALGHLHQKGIIYRDLKPENIMLNHQGHVKLTDFGLCKESIHDGTVTHTFCGTIEYMAPEILMRSGHNRAVDWWSLGALMYDMLTGAPPFTGENRKKTIDKILKCKLNLPPYLTQEARDLLKKLLKRNAASRLGAGPGDAGEVQAHPFFRHINWEELLARKVEPPFKPLLQSEEDVSQFDSKFTRQTPVDSPDDSTLSESANQVFLGFEYVAPSVLES
notes: made in house; host or cells: Sf21 insect cells
On to B2, for which the Km in series [2] (other: S6K1, Standard Substrate = LRRASLG) came out at 6 µM.

B3: PRAK (Homo sapiens) (protein)
chain: MSEESDMDKAIKETSILEEYSINWTQKLGAGISGPVRVCVKKSTQERFALKILLDRPKARNEVRLHMMCATHPNIVQIIEVFANSVQFPHESSPRARLLIVMEMMEGGELFHRISQHRHFTEKQASQVTKQIALALRHCHLLNIAHRDLKPENLLFKDNSLDAPVKLCDFGFAKIDQGDLMTPQFTPYYVAPQVLEAQRRHQKEKSGIIPTSPTPYTYNKSCDLWSLGVIIYVMLCGYPPFYSKHHSRTIPKDMRRKIMTGSFEFPEEEWSQISEMAKDVVRKLLKVKPEERLTIEGVLDHPWLNSTEALDNVLPSAQLMMDKAVVAGIQQAHAEQLANMRIQDLKVSLKPLHSVNNPILRKRKLLGTKPKDSVYIHDHENGAEDSNVALEKLRDVIAQCILPQAGKGENEDEKLNEVMQEAWKYNRECKLLRDTLQSFSWNGRGFTDKVDRLKLAEIVKQVIEEQTTSHESQ
notes: as for B2
Take B3: in series [3], the Km worked out at 40 µM.

B4: SGK1 (Homo sapiens; S422D) (protein)
chain: ISQPQEPELMNANPSPPPSPSQQINLGPSSNPHAKPSDFHFLKVIGKGSFGKVLLARHKAEEVFYAVKVLQKKAILKKKEEKHIMSERNVLLKNVKHPFLVGLHFSFQTADKLYFVLDYINGGELFYHLQRERCFLEPRARFYAAEIASALGYLHSLNIVYRDLKPENILLDSQGHIVLTDFGLCKENIEHNSTTSTFCGTPEYLAPEVLHKQPYDRTVDWWCLGAVLYEMLYGLPPFYSRNTAEMYDNILNKPLQLKPNITNSARHLLEGLLQKDRTKRLGAKDDFMEIKSHVFFSLINWDDLINKKITPPFNPNVSGPNDLRHFDPEFTEEPVPNSIGKSPDSVLVTASVKEAAEAFLGFDYAPPTDSFL
notes: as for B2
In the case of B4, the Km in series [2] (other: SGK1, Standard Substrate = …) was 4 µM.
